Columns and labels:
B5/IgG4 = target: T1, B5/IgG4; test: ELISA peptide competition: peptide preincubated with B5/IgG4, competitor hLAG3-mFc; peptide at 600-fold hLAG3-mFc; capture on anti-human IgG, anti-mouse IgG-HRP
T1 construct: Chimeric: mouse VH and VL with human IgG4 heavy chain and kappa light chain constant regions; also called B5 (human IgG4 heavy chain and kappa light chain chimeric)
Method: (§1) FIGS. 5A-5D show the effect of competition peptides on LAG-3 binding to anti-LAG-3 mAbs. […] B5/IgG4 was preincubated with a competition peptide for 30 minutes. Then human LAG-3 extracellular domain (ECD) fused to mouse Fc (hLAG3-mFc) was added (the final peptide concentration was 600-fold that of hLAG3-mFc) and the mixture was incubated for 60 minutes before being added to an ELISA plate coated with anti-human IgG. The incubation was carried out at 4° C. overnight. After washing, the hLAG3-mFc bound to the immobilized B5/IgG4 on the ELISA plate was detected by adding anti-mouse IgG conjugated to horseradish peroxidase (HRP) and incubating for 60 minutes. Then, after washing, the ELISA was developed using One-step Detection Solution and measured as the absorbance at 450 nm.
(§2) Anti-human IgG in carbonate coating buffer was coated on an ELISA plate at 4° C. (50 μL/well at 1 μg/mL) overnight. In each well of a separate plate, a chimeric version of a given anti-LAG-3 mAb (50 μL/well at 1.4 nM) and a competition peptide (50 μL/well at various concentrations as indicated in the figures) were mixed and incubated for 30 minutes at room temperature. Then human LAG-3 extracellular domain (ECD) fused to mouse Fc (hLAG3-mFc) was added to each well (50 μL/well at 2 nM) and the final mixture was incubated at room temperature for 60 minutes before added to the ELISA plate (50 μL/well) for another 60-minute incubation. The final incubation after adding the mixture to the ELISA plate was also performed at 4° C. overnight in some assays. The plate was washed and the binding of hLAG3-mFc to the immobilized anti-LAG-3 mAb was detected by adding anti-mouse IgG conjugated to horseradish peroxidase (hIgG-HRP) (ThermoFisher Scientific, Cat#: A16084; Waltham, Mass.) and incubating for 60 minutes.

[1] = target: T2, BG29 (human IgG4 heavy chain and kappa light chain chimeric); test: ELISA peptide competition: peptide preincubated with chimeric IgG4 BG29, competitor hLAG3-mFc; peptide at 200-fold hLAG3-mFc; capture on anti-human IgG, anti-mouse IgG-HRP
T2 construct: Chimeric: mouse VH and VL with human IgG4 heavy chain and kappa light chain constant regions; also called chimeric BG29
Method: as §1, §2

[2] = target: T3, B12 (human IgG1 heavy chain and kappa light chain chimeric); test: ELISA peptide competition: peptide preincubated with chimeric IgG1 B12, competitor hLAG3-mFc; peptide at 600-fold hLAG3-mFc; capture on anti-human IgG, anti-mouse IgG-HRP
T3 construct: Chimeric: mouse VH and VL with human IgG1 heavy chain and kappa light chain constant regions
Method: as §1, §2

human LAG-3(ECD)-huFc = target: T4, human LAG-3(ECD)-huFc (human, UniProt P18627 23-450); test: SPR (Biacore): mAb from hybridoma supernatant captured on anti-mouse IgG CM5 chip, human LAG-3(ECD)-huFc 50-400 nM injected
T4 construct: also called Fc-tagged human LAG-3(ECD)-huFc; not shown: human Fc (huFc) at the C-terminus
T4 sequence: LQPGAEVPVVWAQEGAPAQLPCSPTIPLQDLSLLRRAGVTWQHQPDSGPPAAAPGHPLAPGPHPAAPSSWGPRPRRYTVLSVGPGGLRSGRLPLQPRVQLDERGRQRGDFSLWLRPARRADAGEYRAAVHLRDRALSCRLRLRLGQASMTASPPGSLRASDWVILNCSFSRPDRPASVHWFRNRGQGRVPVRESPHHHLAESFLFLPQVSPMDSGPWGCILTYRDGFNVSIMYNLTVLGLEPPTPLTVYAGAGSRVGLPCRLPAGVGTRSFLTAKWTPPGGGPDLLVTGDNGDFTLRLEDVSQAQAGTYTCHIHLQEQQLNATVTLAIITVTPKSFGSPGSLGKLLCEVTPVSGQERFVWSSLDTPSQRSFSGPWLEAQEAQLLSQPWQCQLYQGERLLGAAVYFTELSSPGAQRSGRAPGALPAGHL
Method: Anti-mouse IgG antibodies were immobilized via amine coupling on CM5 chip surface. Anti-LAG-3 mAbs in hybridoma supernatants were captured on the chip surface and a series of concentrations (50-400 nM) of human LAG-3(ECD)-huFc protein were injected and passed through the captured surface. The on and off rates for antibody-antigen binding were measured, curve fitted and calculated.

B3C = target: T5, B3C; test: ELISA peptide competition: peptide (1X, 10X, 50X) preincubated with chimeric IgG1 B3, competitor hLAG3-mFc; capture on anti-human IgG, anti-mouse IgG-HRP
T5 construct: Chimeric: mouse VH and VL fused to constant regions of human IgG1 heavy chain and kappa light chain; also called the chimeric version of mouse mAb B3; B3 (human IgG1 heavy chain and kappa light chain chimeric)
Method: (§3) Then human LAG-3 extracellular domain (ECD) fused to mouse Fc (hLAG3-mFc) was added (the final peptide concentration was 600-fold that of hLAG3-mFc) and the mixture was incubated for 60 minutes before being added to an ELISA plate coated with anti-human IgG. The incubation was carried out at 4° C. overnight. After washing, the hLAG3-mFc bound to the immobilized B5/IgG4 on the ELISA plate was detected by adding anti-mouse IgG conjugated to horseradish peroxidase (HRP) and incubating for 60 minutes. Then, after washing, the ELISA was developed using One-step Detection Solution and measured as the absorbance at 450 nm.
(§4) FIGS. 9A-9B show the effect of competition peptides on LAG-3 binding to anti-LAG-3 mAbs.
as §2, with “assays.” for “assays. The plate was washed and the binding of hLAG3-mFc to the immobilized anti-LAG-3 mAb was detected by adding anti-mouse IgG conjugated to horseradish peroxidase (hIgG-HRP) (ThermoFisher Scientific, Cat#: A16084; Waltham, Mass.) and incubating for 60 minutes.”

B4C = target: T6, B4C; test: ELISA peptide competition: peptide (1X, 10X, 50X) preincubated with chimeric IgG1 B4, competitor hLAG3-mFc; capture on anti-human IgG, anti-mouse IgG-HRP
T6 construct: Chimeric: mouse VH and VL fused to constant regions of human IgG1 heavy chain and kappa light chain; also called the chimeric version of mouse mAb B4; B4 (human IgG1 heavy chain and kappa light chain chimeric)
Method: as §3, §4
as §2, with “assays.” for “assays. The plate was washed and the binding of hLAG3-mFc to the immobilized anti-LAG-3 mAb was detected by adding anti-mouse IgG conjugated to horseradish peroxidase (hIgG-HRP) (ThermoFisher Scientific, Cat#: A16084; Waltham, Mass.) and incubating for 60 minutes.”

B7/IgG4 = target: T7, B7/IgG4; test: ELISA peptide competition: peptide preincubated with B7/IgG4, competitor hLAG3-mFc; peptide at 600-fold hLAG3-mFc; final incubation 60 min at room temperature; anti-mouse IgG-HRP
T7 construct: Chimeric: mouse VH and VL with human IgG4 heavy chain and kappa light chain constant regions; also called B7 (human IgG4 heavy chain and kappa light chain chimeric)
Method: as §3, with “B5/IgG4 was preincubated with a competition peptide for 30 minutes. Then human” for “Then human”
The assay condition is the same as in FIG. 5A except that the final incubation of the mAb, the competition peptide, and hLAG3-mFc on the ELISA plate was performed at room temperature for 60 minutes instead of incubation at 4° C. overnight.
Anti-human IgG in carbonate coating buffer was coated on an ELISA plate at 4° C. (50 μL/well at 1 μg/mL) overnight. In each well of a separate plate, a chimeric version of a given anti-LAG-3 mAb (50 μL/well at 1.4 nM) and a competition peptide (50 μL/well at various concentrations as indicated in the figures) were mixed and incubated for 30 minutes at room temperature. Then human LAG-3 extracellular domain (ECD) fused to mouse Fc (hLAG3-mFc) was added to each well (50 μL/well at 2 nM) and the final mixture was incubated at room temperature for 60 minutes before added to the ELISA plate (50 μL/well) for another 60-minute incubation.

T1 sequence (VH, as listed by the source, chain 1 of 2): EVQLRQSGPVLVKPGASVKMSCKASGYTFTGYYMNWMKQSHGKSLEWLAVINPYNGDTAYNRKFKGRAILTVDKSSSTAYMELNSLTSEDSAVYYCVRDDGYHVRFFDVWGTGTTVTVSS
T1 sequence (VL, as listed by the source, chain 2 of 2): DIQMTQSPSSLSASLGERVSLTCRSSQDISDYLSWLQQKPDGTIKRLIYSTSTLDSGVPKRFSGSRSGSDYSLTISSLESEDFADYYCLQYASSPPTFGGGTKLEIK

Row | binding result (B3C) | binding result (B4C) | Binder | other results
1 | binds | binds | HPAAPSSWGPRPRRY (also called peptide 16-30) [16-30] | binding result (B7/IgG4): binds
2 | binds | binds | GPHPAAPSSWG (also called peptide 14-24) [14-24] | 
3 | no binding (tested: 50X peptide) | no binding (tested: 50X peptide) | PGHPLAPGPHPAAPSS (also called peptide 7-22) [7-22] | 
4 | binds | binds | LAPGPHPAAPSSWG (also called peptide 11-24) [11-24] | 
5 | binds | binds | PHPAAPSSWGPRPRRY (also called peptide 15-30) [15-30] | binding result (B7/IgG4): binds
6 | binds | binds | APGPHPAAPSSWG (also called peptide 12-24) [12-24] | 

Second part, the binder before the results:

Row | Binder | binding result (B3C) | binding result (B4C) | other results
7 | PPAAAPGHPLAPG (also called peptide 2-14) [2-14] |  |  | binding result (B5/IgG4): binds; binding result [1]: binds; binding result [2]: binds
8 | GPPAAAPGHPLAPG (also called peptide 1-14) [1-14] |  |  | binding result (B5/IgG4): binds; binding result [1]: binds; binding result [2]: binds
9 | B7 (antibody, V domains shown, Mouse mAb from hybridoma; also called mouse anti-LAG-3 mAb B7) VH: EFQLQQSGPELVKPGASVKISCKASGYSFSDYNLNWVKQSNGKTLEWIGLINLDSAATVYNQKFKGKATLTIDQSSTTAYMQLNSLTSDDSAVYYCASYDYWGQGTTLTVSS VL: DIQMTQSPSSLSASLGERVSLSCRASQDISHYLNWFQQKPDGTFKRLIYETSTLDFGVPKRFSGSRSGSDYSLTIGSLESEDFADYYCLQYATYPLTFGAGTKLELK |  |  | Kd (human LAG-3(ECD)-huFc): 0.758 nM
10 | B10 (antibody, V domains shown, Mouse mAb from hybridoma; also called mouse anti-LAG-3 mAb B10) VH: EFQLQQSGPELVKPGASVKISCKASGYSFTDYNLNWVKESNGKSLEWIGLITLDYGTTIYNQKFKGKATLTVDQSSSIAYMQLNSLTSDDSAVYYCACYDYWGQGTTLTVSS VL: DIQMTQSPSSLSASLGERVSLTCRASQDISNYLNWFQQKPDGTFKRLIYATSTLDFGVPKRFSGSRSGSDYSLTISSLESEDFADYYCLQYASYPLTFGAGTKLELK |  |  | Kd (human LAG-3(ECD)-huFc): 1.1 nM
11 | PGPHPAAPSSWG (also called peptide 13-24) [13-24] | binds | binds | 
12 | GPPAAAPGHPLAP (also called peptide 1-13) [1-13] |  |  | binding result (B5/IgG4): binds; binding result [1]: binds
13 | PGHPLAPGPHPAAPSSW (also called peptide 7-23) [7-23] | binds | binds | 
14 | GPPAAAPGHPLAPGPHPAAPSSWGPRPRRY (also called peptide 1-30) [1-30] |  |  | binding result (B7/IgG4): binds; binding result [1]: binds
15 | B11 (antibody, V domains shown, Mouse mAb from hybridoma; also called mouse anti-LAG-3 mAb B11) VH: EVQLQQSGPVLVRPGASVKMSCKASGYTFTNYYMNWVKQSHGKSLEWIGVINPYNGDIAYSQKFKGKATLTVDKSSSTAYMELKSLTSEDSAVYYCARDDGYYVYYFDCWGQGTTLTVSS VL: DIQMTQSPSSLSASLGERVSLTCRASQDIGGSLNWLQQKPDGTIKRLIYSTSTLDSGVPKRFSGSRSGSDYSLTISSLESEDFADYYCLQNANSPPTFGGGTKLEIK |  |  | Kd (human LAG-3(ECD)-huFc): 1.18 nM
